Experimental data taken from paper PMC11142304.

Key:
[1] = target: LnaB (recombinant, ITC and AUC) (L. pneumophila); assay: ITC
[2] = target: ADP-ribosylated ubiquitin (ADPR-Ub) (UniProt P0CG48); assay: ITC

Substance	stoichiometry N [1]	Kd [2]
Actin (Sangon Biotech, A001041) (from UniProt P60709 1-375) (natural protein)	0.84	–
MavL_N322A	–	5.96 µM
